Reference: publication PMC8298264, “Function of cofactor Akirin2 in the regulation of gene expression in model human neutrophil-like HL60 cells” (Bioscience Reports, 2021)

B1: sp¦Q96E11¦RRFM_HUMAN (protein, UniProt Q96E11 56-262, looked up)
Ribosome-recycling factor, …: ATKKAKAKGKGQSQTRVNINAALVEDIINLEEVNEEMKSVIEALKDNFNKTLNIRTSPGSLDKIAVVTADGKLALNQISQISMKSPQLILVNMASFPECTAAAIKAIRESGMNLNPEVEGTLIRVPIPQVTREHREMLVKLAKQNTNKAKDSLRKVRTNSMNKLKKSKDTVSEDTIRLIEKQISQMADDTVAELDRHLAVKTKELLG
B2: sp¦P63151¦2ABA_HUMAN (protein, UniProt P63151 2-447, looked up)
Serine/threonine-protein …: AGAGGGNDIQWCFSQVKGAVDDDVAEADIISTVEFNHSGELLATGDKGGRVVIFQQEQENKIQSHSRGEYNVYSTFQSHEPEFDYLKSLEIEEKINKIRWLPQKNAAQFLLSTNDKTIKLWKISERDKRPEGYNLKEEDGRYRDPTTVTTLRVPVFRPMDLMVEASPRRIFANAHTYHINSISINSDYETYLSADDLRINLWHLEITDRSFNIVDIKPANMEELTEVITAAEFHPNSCNTFVYSSSKGTIRLCDMRASALCDRHSKLFEEPEDPSNRSFFSEIISSISDVKFSHSGRYMMTRDYLSVKIWDLNMENRPVETYQVHEYLRSKLCSLYENDCIFDKFECCWNGSDSVVMTGSYNNFFRMFDRNTKRDITLEASRENNKPRTVLKPRKVCASGKRKKDEISVDSLDFNKKILHTAWHPKENIIAVATTNNLYIFQDKVN
B3: sp¦Q9Y383¦LC7L2_HUMAN (protein, UniProt Q9Y383 1-392, looked up)
Putative RNA-binding protein …: MSAQAQMRAMLDQLMGTSRDGDTTRQRIKFSDDRVCKSHLLNCCPHDVLSGTRMDLGECLKVHDLALRADYEIASKEQDFFFELDAMDHLQSFIADCDRRTEVAKKRLAETQEEISAEVAAKAERVHELNEEIGKLLAKVEQLGAEGNVEESQKVMDEVEKARAKKREAEEVYRNSMPASSFQQQKLRVCEVCSAYLGLHDNDRRLADHFGGKLHLGFIEIREKLEELKRVVAEKQEKRNQERLKRREEREREEREKLRRSRSHSKNPKRSRSREHRRHRSRSMSRERKRRTRSKSREKRHRHRSRSSSRSRSRSHQRSRHSSRDRSRERSKRRSSKERFRDQDLASCDRDRSSRDRSPRDRDRKDKKRSYESANGRSEDRRSSEEREAGEI
B4: sp¦P00387¦NB5R3_HUMAN (protein, UniProt P00387 2-301, looked up)
NADH-cytochrome b5 reductase 3: GAQLSTLGHMVLFPVWFLYSLLMKLFQRSTPAITLESPDIKYPLRLIDREIISHDTRRFRFALPSPQHILGLPVGQHIYLSARIDGNLVVRPYTPISSDDDKGFVDLVIKVYFKDTHPKFPAGGKMSQYLESMQIGDTIEFRGPSGLLVYQGKGKFAIRPDKKSNPIIRTVKSVGMIAGGTGITPMLQVIRAIMKDPDDHTVCHLLFANQTEKDILLRPELEELRNKHSARFKLWYTLDRAPEAWDYGQGFVNEEMIRDHLPPPEEEPLVLMCGPPPMIQYACLPNLDHVGHPTERCFVF
B5: sp¦Q9GZY6¦NTAL_HUMAN (protein, UniProt Q9GZY6 1-243, looked up)
Linker for activation of …: MSSGTELLWPGAALLVLLGVAASLCVRCSRPGAKRSEKIYQQRSLREDQQSFTGSRTYSLVGQAWPGPLADMAPTRKDKLLQFYPSLEDPASSRYQNFSKGSRHGSEEAYIDPIAMEYYNWGRFSKPPEDDDANSYENVLICKQKTTETGAQQEGIGGLCRGDLSLSLALKTGPTSGLCPSASPEEDEESEDYQNSASIHQWRESRKVMGQLQREASPGPVGSPDEEDGEPDYVNGEVAATEA
B6: sp¦Q9HAV4¦XPO5_HUMAN (protein, UniProt Q9HAV4 2-1204, looked up)
Exportin-5: AMDQVNALCEQLVKAVTVMMDPNSTQRYRLEALKFCEEFKEKCPICVPCGLRLAEKTQVAIVRHFGLQILEHVVKFRWNGMSRLEKVYLKNSVMELIANGTLNILEEENHIKDALSRIVVEMIKREWPQHWPDMLIELDTLSKQGETQTELVMFILLRLAEDVVTFQTLPPQRRRDIQQTLTQNMERIFSFLLNTLQENVNKYQQVKTDTSQESKAQANCRVGVAALNTLAGYIDWVSMSHITAENCKLLEILCLLLNEQELQLGAAECLLIAVSRKGKLEDRKPLMVLFGDVAMHYILSAAQTADGGGLVEKHYVFLKRLCQVLCALGNQLCALLGADSDVETPSNFGKYLESFLAFTTHPSQFLRSSTQMTWGALFRHEILSRDPLLLAIIPKYLRASMTNLVKMGFPSKTDSPSCEYSRFDFDSDEDFNAFFNSSRAQQGEVMRLACRLDPKTSFQMAGEWLKYQLSTFLDAGSVNSCSAVGTGEGSLCSVFSPSFVQWEAMTLFLESVITQMFRTLNREEIPVNDGIELLQMVLNFDTKDPLILSCVLTNVSALFPFVTYRPEFLPQVFSKLFSSVTFETVEESKAPRTRAVRNVRRHACSSIIKMCRDYPQLVLPNFDMLYNHVKQLLSNELLLTQMEKCALMEALVLISNQFKNYERQKVFLEELMAPVASIWLSQDMHRVLSDVDAFIAYVGTDQKSCDPGLEDPCGLNRARMSFCVYSILGVVKRTCWPTDLEEAKAGGFVVGYTSSGNPIFRNPCTEQILKLLDNLLALIRTHNTLYAPEMLAKMAEPFTKALDMLDAEKSAILGLPQPLLELNDSPVFKTVLERMQRFFSTLYENCFHILGKAGPSMQQDFYTVEDLATQLLSSAFVNLNNIPDYRLRPMLRVFVKPLVLFCPPEHYEALVSPILGPLFTYLHMRLSQKWQVINQRSLLCGEDEAADENPESQEMLEEQLVRMLTREVMDLITVCCVSKKGADHSSAPPADGDDEEMMATEVTPSAMAELTDLGKCLMKHEDVCTALLITAFNSLAWKDTLSCQRTTSQLCWPLLKQVLSGTLLADAVTWLFTSVLKGLQMHGQHDGCMASLVHLAFQIYEALRPRYLEIRAVMEQIPEIQKDSLDQFDCKLLNPSLQKVADKRRKDQFKRLIAGCIGKPLGEQFRKEVHIKNLPSLFKKTKPMLETEVLDNDGGGLATIFEP
B7: sp¦Q16822¦PCKGM_HUMAN (protein, UniProt Q16822 33-640, looked up)
Phosphoenolpyruvate …: LSGDLGQLPTGIRDFVEHSARLCQPEGIHICDGTEAENTATLTLLEQQGLIRKLPKYNNCWLARTDPKDVARVESKTVIVTPSQRDTVPLPPGGARGQLGNWMSPADFQRAVDERFPGCMQGRTMYVLPFSMGPVGSPLSRIGVQLTDSAYVVASMRIMTRLGTPVLQALGDGDFVKCLHSVGQPLTGQGEPVSQWPCNPEKTLIGHVPDQREIISFGSGYGGNSLLGKKCFALRIASRLARDEGWLAEHMLILGITSPAGKKRYVAAAFPSACGKTNLAMMRPALPGWKVECVGDDIAWMRFDSEGRLRAINPENGFFGVAPGTSATTNPNAMATIQSNTIFTNVAETSDGGVYWEGIDQPLPPGVTVTSWLGKPWKPGDKEPCAHPNSRFCAPARQCPIMDPAWEAPEGVPIDAIIFGGRRPKGVPLVYEAFNWRHGVFVGSAMRSESTAAAEHKGKIIMHDPFAMRPFFGYNFGHYLEHWLSMEGRKGAQLPRIFHVNWFRRDEAGHFLWPGFGENARVLDWICRRLEGEDSARETPIGLVPKEGALDLSGLRAIDTTQLFSLPKDFWEQEVRDIRSYLTEQVNQDLPKEVLAELEALERRVHKM
B8: sp¦Q9BVI4¦NOC4L_HUMAN (protein, UniProt Q9BVI4 1-516, looked up)
Nucleolar complex protein 4 …: MEREPGAAGVRRALGRRLEAVLASRSEANAVFDILAVLQSEDQEEIQEAVRTCSRLFGALLERGELFVGQLPSEEMVMTGSQGATRKYKVWMRHRYHSCCNRLGELLGHPSFQVKELALSALLKFVQLEGAHPLEKSKWEGNYLFPRELFKLVVGGLLSPEEDQSLLLSQFREYLDYDDTRYHTMQAAVDAVARVTGQHPEVPPAFWNNAFTLLSAVSLPRREPTVSSFYVKRAELWDTWKVAHLKEHRRVFQAMWLSFLKHKLPLSLYKKVLLIVHDAILPQLAQPTLMIDFLTRACDLGGALSLLALNGLFILIHKHNLEYPDFYRKLYGLLDPSVFHVKYRARFFHLADLFLSSSHLPAYLVAAFAKRLARLALTAPPEALLMVLPFICNLLRRHPACRVLVHRPHGPELDADPYDPGEEDPAQSRALESSLWELQALQRHYHPEVSKAASVINQALSMPEVSIAPLLELTAYEIFERDLKKKGPEPVPLEFIPAQGLLGRPGELCAQHFTLS
B9: sp¦Q29RF7¦PDS5A_HUMAN (protein, UniProt Q29RF7 1-1337, looked up)
Sister chromatid cohesion …: MDFTAQPKPATALCGVVSADGKIAYPPGVKEITDKITTDEMIKRLKMVVKTFMDMDQDSEDEKQQYLPLALHLASEFFLRNPNKDVRLLVACCLADIFRIYAPEAPYTSHDKLKDIFLFITRQLKGLEDTKSPQFNRYFYLLENLAWVKSYNICFELEDCNEIFIQLFRTLFSVINNSHNKKVQMHMLDLMSSIIMEGDGVTQELLDSILINLIPAHKNLNKQSFDLAKVLLKRTVQTIEACIANFFNQVLVLGRSSVSDLSEHVFDLIQELFAIDPHLLLSVMPQLEFKLKSNDGEERLAVVRLLAKLFGSKDSDLATQNRPLWQCFLGRFNDIHVPVRLESVKFASHCLMNHPDLAKDLTEYLKVRSHDPEEAIRHDVIVTIITAAKRDLALVNDQLLGFVRERTLDKRWRVRKEAMMGLAQLYKKYCLHGEAGKEAAEKVSWIKDKLLHIYYQNSIDDKLLVEKIFAQYLVPHNLETEERMKCLYYLYASLDPNAVKALNEMWKCQNMLRSHVRELLDLHKQPTSEANCSAMFGKLMTIAKNLPDPGKAQDFVKKFNQVLGDDEKLRSQLELLISPTCSCKQADICVREIARKLANPKQPTNPFLEMVKFLLERIAPVHIDSEAISALVKLMNKSIEGTADDEEEGVSPDTAIRSGLELLKVLSFTHPTSFHSAETYESLLQCLRMEDDKVAEAAIQIFRNTGHKIETDLPQIRSTLIPILHQKAKRGTPHQAKQAVHCIHAIFTNKEVQLAQIFEPLSRSLNADVPEQLITPLVSLGHISMLAPDQFASPMKSVVANFIVKDLLMNDRSTGEKNGKLWSPDEEVSPEVLAKVQAIKLLVRWLLGMKNNQSKSANSTLRLLSAMLVSEGDLTEQKRISKSDMSRLRLAAGSAIMKLAQEPCYHEIITPEQFQLCALVINDECYQVRQIFAQKLHKALVKLLLPLEYMAIFALCAKDPVKERRAHARQCLLKNISIRREYIKQNPMATEKLLSLLPEYVVPYMIHLLAHDPDFTRSQDVDQLRDIKECLWFMLEVLMTKNENNSHAFMKKMAENIKLTRDAQSPDESKTNEKLYTVCDVALCVINSKSALCNADSPKDPVLPMKFFTQPEKDFCNDKSYISEETRVLLLTGKPKPAGVLGAVNKPLSATGRKPYVRSTGTETGSNINVNSELNPSTGNRSREQSSEAAETGVSENEENPVRIISVTPVKNIDPVKNKEINSDQATQGNISSDRGKKRTVTAAGAENIQQKTDEKVDESGPPAPSKPRRGRRPKSESQGNATKNDDLNKPINKGRKRAAVGQESPGGLEAGNAKAPKLQDLAKKAAPAERQIDLQR

Test system: human HL60 cells
Assay: SWATH-MS proteomics, differential protein representation, akirin2 KO vs WT HL60 cells
Assay type: cell-based
Settings: SWATH-MS, akirin2 KO vs WT HL60 cells; sheet "Under-represented in KO"
In short: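 Three biological replicates per genotype; 150 µg protein FASP/trypsin digested; IDA library (3 µg digest); SWATH variable windows, 5 µg/sample, 3.6 s cycle; gradient 5–30% B 120 min then 30–60% B 15 min; 1% global FDR; TAS normalization.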

Row | Molecule | Fold Change | Log (Fold Change)
1 | B1 | 0.7929 | -0.1008

Same assay, conditions: akirin2 KO vs WT HL60 cells; sheet "Under-represented in KO"

Row | Molecule | Fold Change | Log (Fold Change)
2 | B2 | 0.3625 | -0.4407
3 | B3 | 0.3527 | -0.4526
4 | B4 | 0.3747 | -0.4263
5 | B5 | 0.3739 | -0.4273
6 | B6 | 0.4142 | -0.3828
7 | B7 | 0.1415 | -0.8493
8 | B8 | 0.3572 | -0.4471
9 | B9 | 0.08984 | -1.047
